The values that follow come from US20230265151A1, “GIP/GLP1 CO-AGONIST COMPOUNDS” (priority 2020, published 2023).

*1 amine or outer side, *2 acyl side, *3 side chain or, on linkers, in order; H or OH if unused. Where no end group is shown, it is not given here. Side-chain parts run from the residue outwards. [ ]: non-standard residue; d: D form. The star is where a group is joined. αMePhe(2-F) = C[C@](N)(Cc1ccccc1F)C(=O)O; γGlu = O=C(O)[C@H](CCC(=O)[*:2])N[*:1]; C14 diacid = O=C(O)CCCCCCCCCCCCC(=O)*; αMeY = C[C@](N)(Cc1ccc(O)cc1)C(=O)O; αMeL = CC(C)C[C@](C)(N)C(=O)O; Nle = CCCC[C@H](N)C(=O)O; Orn = NCCC[C@H](N)C(=O)O; AEEA = NCCOCCOCC(=O)O; Aib = CC(C)(N)C(=O)O

What all share (assay): cell-based or functional assay
Assay [1] has as its target human glucagon receptor (human, UniProt P47871 26-477).
For assay [2], the target named is T1, human glucose-dependent insulinotropic polypeptide (GIP) receptor (human, UniProt P48546 22-466).
T1 sequence (looked up): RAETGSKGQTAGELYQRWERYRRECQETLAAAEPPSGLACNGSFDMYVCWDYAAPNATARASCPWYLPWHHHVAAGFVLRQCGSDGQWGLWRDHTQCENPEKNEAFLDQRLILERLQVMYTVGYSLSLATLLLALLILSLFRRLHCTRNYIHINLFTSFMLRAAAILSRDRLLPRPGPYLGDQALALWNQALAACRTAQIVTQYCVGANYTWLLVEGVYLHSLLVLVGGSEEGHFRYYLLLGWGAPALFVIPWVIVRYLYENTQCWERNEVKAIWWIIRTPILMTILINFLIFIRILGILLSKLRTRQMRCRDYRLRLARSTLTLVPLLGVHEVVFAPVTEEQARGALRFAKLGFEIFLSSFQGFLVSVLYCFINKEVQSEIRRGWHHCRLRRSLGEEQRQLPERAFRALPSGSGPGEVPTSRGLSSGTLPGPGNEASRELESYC

Assay [3] concerns the target human glucagon-like peptide-1 (GLP-1) receptor (human, UniProt P43220 24-463).

B1: Example 225 (peptide)
peptide: YXEGTXTSDXSIXLDXKAQXEFIXXLIEGGPSSGAPPPSK
modifications: Aib2, αMeF(2F)6, 4Pal10, αMeL13, Orn16, K17(Z), Aib20, D-Glu24, αMeY25, K40(Z), C-terminal NH2; Z = AEEA3-(γ-Glu)-CO-(CH2)12-CO2H
Take B1: the “cAMP EC50” value was above 9950 nM in assay [1], 0.0466 nM in assay [2] and 9.62 nM in assay [3].

B2: Example 257 (peptide)
peptide: YXEGTXTSDXSIXLDXKAQXEFIXXLIEGGPSSGAPPPSK
modifications: Aib2, αMeF(2F)6, 2Nal10, αMeL13, Orn16, K17(Z), Aib20, D-Glu24, αMeY25, K40(Z), C-terminal NH2; Z = AEEA2-CO-(CH2)12-CO2H
As to B2, the “cAMP EC50” value was above 9950 nM in assay [1], 0.148 nM in assay [2] and 2.03 nM in assay [3]. For the same molecule, the “cAMP Emax” value in assay [3] is 82%.

B3: Example 228 (peptide)
peptide: YXEGTXTSDXSIXLDXIAQXKFIXXLIEGGPSSGAPPPSK
modifications: Aib2, αMeF(2F)6, 4Pal10, αMeL13, Orn16, Aib20, K21(Z), D-Glu24, αMeY25, K40(Z), C-terminal NH2; Z = AEEA3-(γ-Glu)-CO-(CH2)12-CO2H
In the case of B3, the “cAMP EC50” value was above 9950 nM in assay [1], 0.0232 nM in assay [2] and 1.34 nM in assay [3]. The “cAMP Emax” value in assay [3] was found to be 91.1%.

B4: Example 254 (peptide)
peptide: YXEGTXTSDXSIXLDXIAQXKFIXXLIEGGPSSGAPPPSK
modifications: Aib2, αMeF(2F)6, 2Nal10, αMeL13, Orn16, Aib20, K21(Z), D-Glu24, αMeY25, K40(Z), C-terminal NH2; Z = AEEA2-(γ-Glu)-CO-(CH2)12-CO2H
Consider B4, for which the “cAMP EC50” value in assay [1] was above 9950 nM; in assay [2], 0.0273 nM; in assay [3], 0.507 nM.

B5: Example 261 (peptide)
peptide: YXEGTXTSDXSIXLDXKAQXEFIXXLIEGGPSSGAPPPSK
modifications: Aib2, αMeF(2F)6, OMeY10, αMeL13, Orn16, K17(Z), Aib20, D-Glu24, αMeY25, K40(Z), C-terminal NH2; Z = AEEA2-(γ-Glu)-CO-(CH2)12-CO2H
Consider B5, for which the entries for the “cAMP EC50” value in assay [1], in assay [2] and in assay [3] were above 9950 nM, 0.025 nM and 0.531 nM, respectively.

B6: Example 258 (peptide)
peptide: YXEGTXTSDXSIXLDXIAQXKFIXXLIEGGPSSGAPPPSK
modifications: Aib2, αMeF(2F)6, 2Nal10, αMeL13, Orn16, Aib20, K21(Z), D-Glu24, αMeY25, K40(Z), C-terminal NH2; Z = AEEA2-CO-(CH2)12-CO2H
Take B6: the “cAMP EC50” value in assay [1] was above 9950 nM; in assay [2] it was 0.0473 nM; in assay [3], 0.653 nM. Also, the “cAMP Emax” value in assay [2] was 90.3%.

B7: Example 267 (peptide)
peptide: YXEGTXTSDXSIXLDXKAQXEFIXXLIEGGPSSGAPPPSK
modifications: Aib2, αMeF(2F)6, OMeY10, αMeL13, Orn16, K17(Z), Aib20, D-Glu24, αMeY25, K40(Z), C-terminal NH2; Z = AEEA2-CO-(CH2)12-CO2H
On to B7, for which the “cAMP EC50” value was above 9950 nM in assay [1], 0.0162 nM in assay [2] and 0.271 nM in assay [3].

B8: Example 268 (peptide)
peptide: YXEGTXTSDXSIXLDXIAQXKFIXXLIEGGPSSGAPPPSK
modifications: Aib2, αMeF(2F)6, OMeY10, αMeL13, Orn16, Aib20, K21(Z), D-Glu24, αMeY25, K40(Z), C-terminal NH2; Z = AEEA2-CO-(CH2)12-CO2H
For B8, the “cAMP EC50” value is above 9950 nM in assay [1], 0.0265 nM in assay [2] and 0.613 nM in assay [3].

B9: Example 264 (peptide)
peptide: YXEGTXTSDXSIXLDXIAQXKFIXXLIEGGPSSGAPPPSK
modifications: Aib2, αMeF(2F)6, OMeY10, αMeL13, Orn16, Aib20, K21(Z), D-Glu24, αMeY25, K40(Z), C-terminal NH2; Z = AEEA2-(γ-Glu)-CO-(CH2)12-CO2H
Regarding B9, the “cAMP EC50” value in assay [1] is above 9950 nM; in assay [2], 0.0208 nM; in assay [3], 0.413 nM. For the same molecule, the “cAMP Emax” value in assay [2] came out at 114%.

B10: Example 251 (peptide)
peptide: YXEGTXTSDXSIXLDXKAQXEFIXXLIEGGPSSGAPPPSK
modifications: Aib2, αMeF(2F)6, 2Nal10, αMeL13, Orn16, K17(Z), Aib20, D-Glu24, αMeY25, K40(Z), C-terminal NH2; Z = AEEA2-(γ-Glu)-CO-(CH2)12-CO2H
On to B10, for which the “cAMP EC50” value is above 9950 nM in assay [1], 0.0305 nM in assay [2] and 0.338 nM in assay [3].

B11: Example 269 (peptide)
peptide: Y[Aib]EGT[αMePhe(2-F)]TSD[Nle]SI[αMeL]LD[Orn]IAQ[Aib]EFIK([AEEA-AEEA-γGlu-C14 diacid])[αMeY]LIK([AEEA-AEEA-γGlu-C14 diacid])GGPSSGAPPPS-NH2
modifications: N-terminus assumed
SMILES: CCCC[C@H](NC(=O)[C@H](CC(=O)O)NC(=O)[C@H](CO)NC(=O)[C@@H](NC(=O)[C@](C)(Cc1ccccc1F)NC(=O)[C@@H](NC(=O)CNC(=O)[C@H](CCC(=O)O)NC(=O)C(C)(C)NC(=O)[C@@H](N)Cc1ccc(O)cc1)[C@@H](C)O)[C@@H](C)O)C(=O)N[C@@H](CO)C(=O)N[C@H](C(=O)N[C@@](C)(CC(C)C)C(=O)N[C@@H](CC(C)C)C(=O)N[C@@H](CC(=O)O)C(=O)N[C@@H](CCCN)C(=O)N[C@H](C(=O)N[C@@H](C)C(=O)N[C@@H](CCC(N)=O)C(=O)NC(C)(C)C(=O)N[C@@H](CCC(=O)O)C(=O)N[C@@H](Cc1ccccc1)C(=O)N[C@H](C(=O)N[C@@H](CCCCNC(=O)COCCOCCNC(=O)COCCOCCNC(=O)CC[C@H](NC(=O)CCCCCCCCCCCCC(=O)O)C(=O)O)C(=O)N[C@@](C)(Cc1ccc(O)cc1)C(=O)N[C@@H](CC(C)C)C(=O)N[C@H](C(=O)N[C@@H](CCCCNC(=O)COCCOCCNC(=O)COCCOCCNC(=O)CC[C@H](NC(=O)CCCCCCCCCCCCC(=O)O)C(=O)O)C(=O)NCC(=O)NCC(=O)N1CCC[C@H]1C(=O)N[C@@H](CO)C(=O)N[C@@H](CO)C(=O)NCC(=O)N[C@@H](C)C(=O)N1CCC[C@H]1C(=O)N1CCC[C@H]1C(=O)N1CCC[C@H]1C(=O)N[C@@H](CO)C(N)=O)[C@@H](C)CC)[C@@H](C)CC)[C@@H](C)CC)[C@@H](C)CC
In the case of B11, the “cAMP EC50” value in assay [1] was above 9950 nM; in assay [2], 0.0335 nM; in assay [3], 1.72 nM.

B12: Example 226 (peptide)
peptide: YXEGTXTSDXSIXLDXIAQXEFIKXLIKGGPSSGAPPPS
modifications: Aib2, αMeF(2F)6, 4Pal10, αMeL13, Orn16, Aib20, K24(Z), αMeY25, K28(Z), C-terminal NH2; Z = AEEA3-(γ-Glu)-CO-(CH2)12-CO2H
For the molecule B12, the “cAMP EC50” value in assay [1] is above 9950 nM; in assay [2], 0.0232 nM; in assay [3], 0.611 nM.

B13: Example 260 (peptide)
peptide: YXEGTXTSDXSIXLDXKAQXEFIXXLIKGGPSSGAPPPS
modifications: Aib2, αMeF(2F)6, OMeY10, αMeL13, Orn16, K17(Z), Aib20, D-Glu24, αMeY25, K28(Z), C-terminal NH2; Z = AEEA2-(γ-Glu)-CO-(CH2)12-CO2H
B13: the “cAMP EC50” value in assay [1] is above 9950 nM; in assay [2] it was 0.0239 nM; in assay [3] it was 0.547 nM.

B14: Example 255 (peptide)
peptide: YXEGTXTSDXSIXLDXKAQXKFIXXLIEGGPSSGAPPPS
modifications: Aib2, αMeF(2F)6, 2Nal10, αMeL13, Orn16, K17(Z), Aib20, K21(Z), D-Glu24, αMeY25, C-terminal NH2; Z = AEEA2-CO-(CH2)12-CO2H
With B14, the results for the “cAMP EC50” value in assay [1], in assay [2] and in assay [3] were above 9950 nM, 0.0213 nM and 0.357 nM, respectively.
